Results on 2 molecules are retold here after article PMC2063705 (The Journal of Cell Biology, 2006).

The target of the assay is microtubules polymerized from purified tubulin, stabilized with paclitaxel (UniProt Q6B856 1-445). The experiment in a line: co-sedimentation.

B1: wild-type p150^Glued NH2-terminal residues 1–333 (domain or fragment, human, UniProt Q14203-1 1-333, looked up)
chain: MAQSKRHVYSRTPSGSRMSAEASARPLRVGSRVEVIGKGHRGTVAYVGATLFATGKWVGVILDEAKGKNDGTVQGRKYFTCDEGHGIFVRQSQIQVFEDGADTTSPETPDSSASKVLKREGTDTTAKTSKLRGLKPKKAPTARKTTTRRPKPTRPASTGVAGASSSLGPSGSASAGELSSSEPSTPAQTPLAAPIIPTPVLTSPGAVPPLPSPSKEEEGLRAQVRDLEEKLETLRLKRAEDKAKLKELEKHKIQLEQVQEWKSKMQEQQADLQRRLKEARKEAKEALEAKERYMEEMADTADAIEMATLDKEMAEERAESLQQEVEALKERVD
modifications: [35S]methionine label (microtubule binding assay)
Consider B1, for which the affinity, expressed as Kd, was 1100 ± 200 nM.

B2: G59S p150^Glued NH2-terminal residues 1–333 (domain or fragment, human, UniProt Q14203-1 1-333, looked up)
chain: MAQSKRHVYSRTPSGSRMSAEASARPLRVGSRVEVIGKGHRGTVAYVGATLFATGKWVSVILDEAKGKNDGTVQGRKYFTCDEGHGIFVRQSQIQVFEDGADTTSPETPDSSASKVLKREGTDTTAKTSKLRGLKPKKAPTARKTTTRRPKPTRPASTGVAGASSSLGPSGSASAGELSSSEPSTPAQTPLAAPIIPTPVLTSPGAVPPLPSPSKEEEGLRAQVRDLEEKLETLRLKRAEDKAKLKELEKHKIQLEQVQEWKSKMQEQQADLQRRLKEARKEAKEALEAKERYMEEMADTADAIEMATLDKEMAEERAESLQQEVEALKERVD
modifications: [35S]methionine label (microtubule binding assay)
As for B2, the Kd came to 2600 ± 500 nM.
